Biological target: T1, MORC2 1-603 (Homo sapiens, UniProt Q9Y6X9 1-603)
T1 sequence: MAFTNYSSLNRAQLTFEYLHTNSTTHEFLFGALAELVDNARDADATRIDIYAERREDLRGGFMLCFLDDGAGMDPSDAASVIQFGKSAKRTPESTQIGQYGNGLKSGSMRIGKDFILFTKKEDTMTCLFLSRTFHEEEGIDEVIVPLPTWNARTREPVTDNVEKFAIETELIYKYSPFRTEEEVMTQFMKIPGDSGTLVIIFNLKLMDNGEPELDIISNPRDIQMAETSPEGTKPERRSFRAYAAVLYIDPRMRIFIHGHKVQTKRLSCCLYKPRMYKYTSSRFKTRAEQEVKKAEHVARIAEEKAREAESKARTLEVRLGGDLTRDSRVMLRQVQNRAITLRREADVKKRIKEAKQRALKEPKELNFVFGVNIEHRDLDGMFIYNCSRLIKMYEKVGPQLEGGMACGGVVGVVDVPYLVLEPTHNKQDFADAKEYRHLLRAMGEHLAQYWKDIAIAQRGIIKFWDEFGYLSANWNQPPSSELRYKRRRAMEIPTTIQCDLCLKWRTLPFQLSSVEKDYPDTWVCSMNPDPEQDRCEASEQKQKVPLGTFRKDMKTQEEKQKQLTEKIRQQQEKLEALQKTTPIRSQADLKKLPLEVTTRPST
Test: fluorescence anisotropy; apo; FA/EMSA: 50 mM NaCl, 3 mM MgCl2, 20 mM Na-HEPES pH 7.4, 1 mM TCEP, 10% glycerol, 0.025 mM ZnCl2, 50 ug/ml BSA, room temperature; 1 nM nucleic acid (FA) or 20 nM DNA (EMSA)
Settings: protein: recombinant; tags: tag removed by TEV; label: 5'-6-FAM; blunt

B1: Random 35mer dsDNA (dsDNA)
DNA 1: ATAGGGTCCATCAGAATTCGGATGAACTCGGTGTG
DNA 2: CACACCGAGTTCATCCGAATTCTGATGGACCCTAT
- Kd: 446 ± 119 nM

Reference: article PMC11879086, “Identification and characterization of a human MORC2 DNA binding region that is required for gene silencing” (Nucleic Acids Research, 2024)
